According to patent US7173005 (dated 2007):

Columns and labels:
[1] = biological target: T1, human IGF-1 receptor (IGF-1R) (human, UniProt P08069); experiment: competition, TR-FRET vs b-20E2
[2] = biological target: T1, human IGF-1 receptor (IGF-1R); experiment: competition, TR-FRET vs b-20E2; remark: listed apart in the source
[3] = biological target: T1, human IGF-1 receptor (IGF-1R); experiment: competition
[4] = biological target: T1, human IGF-1 receptor (IGF-1R); experiment: competition, TRF vs b-rhIGF-1
[5] = biological target: human insulin receptor (HIR) (human, UniProt P06213); experiment: competition
[6] = biological target: T1, human IGF-1 receptor (IGF-1R); experiment: competition, AlphaScreen vs b-hIGF-1

**Q.** How did the IC50 [1] turn out when CWARPCGDAANFYDWFVQQAS [C1 (D112)] was run?
**A.** Its IC50 is 10 nM.

**Q.** And the IC50 [2]?
**A.** The IC50 was 0.88 nM.

**Q.** GIISQSCPESFYDWFAGQVSDPWWCW [S326 / G33] was tested. Which IC50 [1] did it give?
**A.** Its IC50 is 178 nM.

**Q.** What about the Ki [3] of the same binder?
**A.** Its Ki is 1450 nM.

**Q.** What about the IC50 [4] of the same binder?
**A.** The IC50 was 1450 nM.

B1: S246 (peptide)
chain 1: ACAWPTYWNCGGGGX
chain 2: FHENFYDWFVRQVSKKX
modifications: listing feature
**Q.** For B1, which Kd [5] is on record?
**A.** The Kd was 5000 nM.

**Q.** How did the IC50 [1] turn out when GSLDESFYDWFERQLG [S386 / RP9 without terminal lysines] was run?
**A.** Its IC50 is 33 nM.

**Q.** What about the Ki [3] of the same binder?
**A.** Its Ki is 417 nM.

**Q.** And the IC50 [2]?
**A.** Its IC50 is 39.3 nM.

**Q.** What about the IC50 [4] of the same binder?
**A.** The IC50 was 417 nM.

**Q.** With SFYSCLESLVNGPAEKSRGQWDGCRKK [RP33-IGF] as the binder, how does the IC50 [6] read?
**A.** The IC50 was 9 nM.

**Q.** For WLDQERAWLWCEISGRGCLS [rD815], which Ki [3] is on record?
**A.** Its Ki is 4080 nM.

**Q.** What about the IC50 [4] of the same binder?
**A.** The IC50 was 4080 nM.

**Q.** With CGFHENFYDWFVRQVSKK [S171] as the binder, how does the Kd [5] read?
**A.** Its Kd is 2900 nM.

**Q.** VMDARDDPFYHKLSELVT [RP16] was tested. Which IC50 [1] did it give?
**A.** Its IC50 is 961 nM.

**Q.** HPTSKEIYAKLLK [S122] was tested. Which Kd [5] did it give?
**A.** Its Kd is 9300 nM.

**Q.** With SAKNFYDWFVKK [A6] as the binder, how does the IC50 [2] read?
**A.** The IC50 was 31000 nM.

**Q.** For AAAAFYDWFAAAAAKK [S168], which Kd [5] is on record?
**A.** Its Kd is 3800 nM.

**Q.** How did the Kd [5] turn out when ANFYDWFVAELG [S242] was run?
**A.** The Kd was 2000 nM.

**Q.** SDGFYNAIELLS [S118] was tested. Which Kd [5] did it give?
**A.** Its Kd is 2400 nM.

**Q.** HDPFYSMMKSLLK [S120] was tested. Which Kd [5] did it give?
**A.** Its Kd is 2000 nM.

**Q.** How did the IC50 [1] turn out when PPWGARFYDAIEQLVFDNL [RP4] was run?
**A.** Its IC50 is 8100 nM.

**Q.** How did the IC50 [1] turn out when DYKDFYDAIDQLVRGSARAGGTRD [20E2 (D118)] was run?
**A.** Its IC50 is 100 nM.

**Q.** What about the IC50 [2] of the same binder?
**A.** Its IC50 is 104 nM.

**Q.** Which IC50 [2] does the source give for FHENFYDWFVQRVSKK [H2C (D117)] here?
**A.** Its IC50 is 460 nM.

B2: D815-6aa-G33 (protein)
chain: WLDQERAWLWCEISGRGCLSGGSGGSGIISQSCPESFYDWFAGQVSDPWWCW
**Q.** With B2 as the binder, how does the Ki [3] read?
**A.** Its Ki is 624 nM.

**Q.** And the IC50 [4]?
**A.** Its IC50 is 624 nM.

**Q.** Which IC50 [2] does the source give for WLEQERAWIWCEIQGSGCRA [S263 / D8B12] here?
**A.** The IC50 was 11300 nM.

**Q.** For TFYSCLASLLTGTPQPNRGPWERCRKK [S327 / RP6KK], which IC50 [6] is on record?
**A.** Its IC50 is 190 nM.

**Q.** WLDQERAWLWCEISGRGCLSGGSGGSGSLDESFYDWFERQLGKK [D815-6aa-RP9] was tested. Which Ki [3] did it give?
**A.** Its Ki is 36 nM.

**Q.** What about the IC50 [4] of the same binder?
**A.** Its IC50 is 35.7 nM.

**Q.** Which IC50 [6] does the source give for EGSSINLLARAQIVELALEMGVQEE [RP54] here?
**A.** Its IC50 is 1600 nM.

**Q.** For WLDQERAWLWCEISGRGCLSGGSGGSGGSGGSGSLDESFYDWFERQLGKK [D815-12aa-RP9], which Ki [3] is on record?
**A.** The Ki was 3 nM.

**Q.** And the IC50 [4]?
**A.** Its IC50 is 3.22 nM.

**Q.** With LDALDRLMRYFEERPSL [S173] as the binder, how does the IC50 [2] read?
**A.** Its IC50 is 6290 nM.

B3: S255 (peptide)
chain 1: SDGFYNAIELLSGGGX
chain 2: SDGFYNAIELLSGGGX
modifications: listing feature
**Q.** With B3 as the binder, how does the Kd [5] read?
**A.** Its Kd is 1600 nM.

B4: S456 (peptide)
chain 1: XGSLDESFYDWFERQLGKK
chain 2: XKEWLDQEWAWVQCEVYGRGCPSEE
modifications: not fully specified; listing feature
**Q.** With B4 as the binder, how does the Kd [5] read?
**A.** Its Kd is 2.4 nM.

**Q.** SQAGSAFYAWFDQVLRTV [RP15] was tested. Which IC50 [1] did it give?
**A.** Its IC50 is 706 nM.
